In paper PMC6015732:

Columns and labels:
Assay in all cases: SPR
[1] = target: RG801 (Fc domain of glycosylated clone 801 constructed with the Fab arms of Rituxan) (human)
[2] = target: RA801 (Fc domain of aglycosylated clone 801 constructed with the Fab arms of Rituxan) (human)
[3] = target: RG802 (Rituxan clone 802, glycosylated) (human)
[4] = target: IgG1 (wild-type glycosylated IgG1) (human) [IgG part: P01857]

Row | Substance | Kd [1] | Kd [2] | Kd [3] | Kd [4]
1 | human FcγRI (monomeric, soluble) (from UniProt P12314 16-292) (receptor) | 0.648 µM |  |  | 
2 | monomeric human FcRn–β2-microglobulin (from UniProt P55899 24-365; P61769 21-119) (complex) | 0.283 µM | 0.959 µM | 0.289 µM | 0.623 µM
